Laboratory results published in patent publication US20190085043A1, “FUSION PROTEINS FOR TREATING A METABOLIC SYNDROME” (SANOFI, priority 2012, published 2019).

Legend:
human FGFR1c plus KLB = human FGFR1c plus KLB (Homo sapiens, UniProt P11362+Q86Z14); assay: FGF-21 receptor autophosphorylation In-Cell Western (pFGFR ICW) in CHO cells; assay type: cell-based; settings: CHO cells overexpressing human FGFR1c plus KLB, FGFR autophosphorylation
Description: FIG. 1B-1 to FIG. 1B-4) The FGF induced FGFR autophosphorylation was measured via a specific and highly sensitive In-Cell Western (ICW) in CHO cells stably overexpressing human FGFR1c together with human betaKlotho (KLB). In-Cell Western assay is an immunocytochemical assay usually performed in microplate format. Target-specific primary antibodies and infrared-labelled secondary antibodies are used to detect target proteins in fixed cells, and fluorescent signal from each well is quantified (e.g. the In-Cell Western assay from LI-COR Biosciences, USA).
The cellular efficacy of FGF-21 or FGF-21 fusion proteins was measured using a specific and highly sensitive In-Cell Western (ICW) assay. The ICW assay is an immunocytochemical assay usually performed in microplate format.
(§1) CHO Flp-In cells (Invitrogen, Darmstadt, Germany) stable expressing the human FGFR1c together with human beta-Klotho (KLB) were used for FGF-21 receptor autophosphorylation assay using In-Cell Western. In order to determine the receptor autophosphorylation level, 2×10^4 cells/well were seeded into 96-well plates and grown for 48 h. […] Subsequently cells were washed again with PBS+0.1% Tween20 and infrared dye signals were quantified with an Odyssey imager (LICOR, Bad Homburg, Germany). Results were normalized by quantification of DNA with TO-PRO3 dye (Invitrogen, Karlsruhe, Germany). […]

MAP kinase ERK1/2 = assay: ERK1/2 phosphorylation In-Cell Western (pERK ICW) in CHO cells overexpressing human FGFR1c plus KLB; assay type: cell-based; settings: ERK1/2 phosphorylation Thr202/Tyr204
Description: FIG. 1C-1 to FIG. 1C-3) Dose dependent in vitro activation of the downstream effector ERK. Activation of the downstream effector of FGF signaling, the MAP kinase ERK1/2, was determined via In-Cell Western assay in CHO cells stably overexpressing human FGFR1c and KLB using an antibody directed against the ERK1/2 phosphorylated amino acid residues threonine 202 and tyrosine 204.
as §1, with “h. Cells were serum starved with serum-free medium Ham's F-12 Nutrient Mix with GlutaMAX (Gibco, Darmstadt, Germany) for 3-4 h.” for “h.”
To assess the activation of a downstream effector of FGFR signalling by FGF-21-GLP-1RA fusion proteins the phosphorylation of MAP kinases ERK1/2 were analysed. […]

Chain of human FGFR1c plus KLB (P11362 22-822): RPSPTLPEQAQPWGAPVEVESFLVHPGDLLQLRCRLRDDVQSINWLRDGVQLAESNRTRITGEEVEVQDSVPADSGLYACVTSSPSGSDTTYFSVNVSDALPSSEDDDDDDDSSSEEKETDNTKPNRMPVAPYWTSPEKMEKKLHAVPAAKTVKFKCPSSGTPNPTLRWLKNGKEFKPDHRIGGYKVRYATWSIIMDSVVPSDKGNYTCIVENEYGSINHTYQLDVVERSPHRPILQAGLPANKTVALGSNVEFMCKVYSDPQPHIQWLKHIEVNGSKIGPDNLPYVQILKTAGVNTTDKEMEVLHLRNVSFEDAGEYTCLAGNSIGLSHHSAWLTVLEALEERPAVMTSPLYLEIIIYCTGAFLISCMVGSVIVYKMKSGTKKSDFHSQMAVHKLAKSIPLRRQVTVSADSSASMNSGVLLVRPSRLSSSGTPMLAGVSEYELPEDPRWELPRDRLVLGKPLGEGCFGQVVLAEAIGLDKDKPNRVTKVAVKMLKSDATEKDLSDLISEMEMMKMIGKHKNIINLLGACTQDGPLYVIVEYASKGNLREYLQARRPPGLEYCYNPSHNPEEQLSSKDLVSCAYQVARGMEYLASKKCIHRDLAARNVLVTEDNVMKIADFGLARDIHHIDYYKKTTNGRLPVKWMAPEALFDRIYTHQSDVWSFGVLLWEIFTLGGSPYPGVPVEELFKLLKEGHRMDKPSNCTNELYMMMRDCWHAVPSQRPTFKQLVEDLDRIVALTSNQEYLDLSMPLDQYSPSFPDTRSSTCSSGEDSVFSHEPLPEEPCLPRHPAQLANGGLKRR
Chain of human FGFR1c plus KLB (Q86Z14 whole entry): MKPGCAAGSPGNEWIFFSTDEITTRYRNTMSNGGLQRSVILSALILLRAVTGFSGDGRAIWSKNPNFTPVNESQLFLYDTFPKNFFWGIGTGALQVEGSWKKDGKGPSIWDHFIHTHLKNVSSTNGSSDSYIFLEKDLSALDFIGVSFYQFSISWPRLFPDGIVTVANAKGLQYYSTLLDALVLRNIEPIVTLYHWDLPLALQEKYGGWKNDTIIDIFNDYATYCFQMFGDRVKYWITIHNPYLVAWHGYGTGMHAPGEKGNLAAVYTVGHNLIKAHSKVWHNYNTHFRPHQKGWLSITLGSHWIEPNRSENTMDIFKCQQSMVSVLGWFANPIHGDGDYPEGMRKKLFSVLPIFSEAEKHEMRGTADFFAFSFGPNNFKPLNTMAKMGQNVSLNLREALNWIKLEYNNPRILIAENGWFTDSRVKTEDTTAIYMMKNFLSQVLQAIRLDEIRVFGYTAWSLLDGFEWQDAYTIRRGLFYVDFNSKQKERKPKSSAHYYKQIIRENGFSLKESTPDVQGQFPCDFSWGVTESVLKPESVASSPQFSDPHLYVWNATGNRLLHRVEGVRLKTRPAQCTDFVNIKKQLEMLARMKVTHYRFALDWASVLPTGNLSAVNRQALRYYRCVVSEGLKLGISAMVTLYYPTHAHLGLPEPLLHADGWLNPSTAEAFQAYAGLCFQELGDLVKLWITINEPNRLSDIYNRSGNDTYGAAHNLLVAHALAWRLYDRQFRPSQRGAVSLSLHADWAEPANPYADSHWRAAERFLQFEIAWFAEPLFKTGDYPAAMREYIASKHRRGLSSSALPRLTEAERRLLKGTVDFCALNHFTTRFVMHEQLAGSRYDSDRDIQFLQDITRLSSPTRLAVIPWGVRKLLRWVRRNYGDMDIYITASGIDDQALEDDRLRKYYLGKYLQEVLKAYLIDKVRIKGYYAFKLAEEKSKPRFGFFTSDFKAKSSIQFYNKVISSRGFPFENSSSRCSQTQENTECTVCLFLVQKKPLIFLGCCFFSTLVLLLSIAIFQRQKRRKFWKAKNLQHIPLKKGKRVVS

B1: FGF21 wild type: Native Human FGF-21 without signal sequence (protein)
chain: HPIPDSSPLLQPGGQVRQRYLYTDDAQQTEAHLEIREDGTVGGAADQSPESLLQLKALKPGVIQILGVKTSRFLCQRPDGALYGSLHFDPEACSFRELLLEDGYNVYQSEAHGLPLHLPGNKSPHRDPAPRGPARFLPLPGLPPAPPEPPGILAPQPPDVGSSDPLSMVGPSQGRSPSYAS
modifications: FGF-21 mutein H29-S209
EC50 (human FGFR1c plus KLB): 4.3 nM
EC50 (MAP kinase ERK1/2): 0.135 nM
